Test results: publication PMC12706091

Biological target: recombinant Flag-DIC1B (rFlag-DIC1B)
Test: pull-down; 2 μg Flag-DIC1B on anti-Flag magnetic beads, 2 μg each of Myc-ANXA7 and TIA1 added; NP40 lysis buffer with 0.5 M L-arginine, 4 °C; with or without 1 mM CaCl2; western blot

B1: recombinant TIA1 (rTIA1) (natural protein)
chain: MEDEMPKTLYVGNLSRDVTEALILQLFSQIGPCKNCKMIMDTAGNDPYCFVEFHEHRHAAAALAAMNGRKIMGKEVKVNWATTPSSQKKDTSSSTVVSTQRSQDHFHVFVGDLSPEITTEDIKAAFAPFGRISDARVVKDMATGKSKGYGFVSFFNKWDAENAIQQMGGQWLGGRQIRTNWATRKPPAPKSTYESNTKQLSYDEVVNQSSPSNCTVYCGGVTSGLTEQLMRQTFSPFGQIMEIRVFPDKGYSFVRFNSHESAAHAIVSVNGTTIEGHVVKCYWGKETLDMINPVQQQNQIGYPQPYGQWGQWYGNAQQIGQYMPNGWQVPAYGMYGQAWNQQGFNQTQSSAPWMGPNYGVQPPQGQNGSMLPNQPSGYRVAGYETQ
**Q.** B1 was tested. Which fold change of TIA1 pulled down with DIC1B, with Myc-ANXA7 against without did it give?
**A.** 4 fold
